Substrate in data set [1]: BHET
The settings on record: 50 °C; part of the chain shown.

Substrate in data set [2]: BHET
Kind of data set: Proxy for plastic degradation [Released monomer concentration (HPLC/LC-MS) (BHET)]. The conditions noted are these: pH 7.

This is an account of results in the PETadex activity labels.

B1: unnamed (protein)
chain: MNFPRASRLMQAAVLGGLMAVSAAATAQTNPYARGPNPTAASLEASAGPFTVRSFTVSRPSGYGAGTVYYPTNAGGTVGAIAIVPGYTARQSSIKWWGPRLASHGFVVITIDTNSTLDQPSSRSSQQMAALRQVASLNGTSSSPIYGKVDTARMGVMGHSMGGGGSLISAANNPSLKAAAPQAPWDSSTNFSSVTVPTLIFACENDSIAPVNSSALPIYDSMSRNAKQFLEINGGSHFCANSGNSNQALIGKKGVAWMKRFMDNDTRYSTFACENPNSTRVSDFRTANCS
A word on the Km: it is the concentration of substrate that gives half-maximal velocity. Usually kcat stands for the maximal rate divided by the concentration of active sites. What is called kcat/Km is the second-order rate constant that governs catalysis at low substrate concentration. As for B1, in the data set with BHET [1], the Km is 1610 µM, the kcat amounted to 540 s⁻¹ and the kcat/Km came to 335000 M⁻¹ s⁻¹.

B2: unnamed (protein)
chain: MSMTASAYALAQSSPYAKGPDPTTSSLEAATGSFSTRTTTVSRLSASGFGGGTIYYPTASGSYGAIAISPGFTAYQSSISWLGTRLASRGFVVITIDTITTSDQPDSRGRQLKAALDKVVSLSRTAGNVLYGKVDANRLAVAGHSMGGGGTLAAARDNPSLKAAVPLAPWHTTKFFSTIRVPTLIIGGESDTIAPVASHSIPFYTSSLSSIAKGYMELNNASHFFPQTSTYYPLVGKYMISWFKRFVDEDTRYSPFLCGAPHQSDVANFLRVSDYRENCPY
Take B2: the “Proxy for plastic degradation” value in the data set with BHET [2] stood at 1%.
